Tests used:
[1] = Cloud point determination (turbidity at 300 nm, 20-80° C.); type: physicochemical
Experimental: The cloud point of SELP47K was determined by first preparing 0.1% and 1% solutions of polydispersed SELP 47K (Example 2) in three different buffers: 50 mM acetate pH 5; 50 mM Tris pH 7; 50 mM Tris pH 9. A 0.5 M NaCl salt solution was prepared in water and salt containing solutions were prepared using this stock solution. Samples were placed in quartz cuvettes and the cloud point determination was carried out using a Cary 300 spectrophotometer equipped with a thermal program and multiple cuvettes configuration. Turbidity measurements were made at 300 nm and the temperature was varied from 20-80° C.

[2] = Glass transition and decomposition temperature (DSC, DMA, TGA); type: physicochemical
Experimental: In this Example, experiments performed to determine the glass transition temperature (Tg) and decomposition temperature of SELP47K. (Example 1) are described. Approximately 10 mg of SELP47K material was crimped in an aluminum (Al) pan, cooled to <−150° C., then heated to >200° C. at 10° C./min under a He (helium) atmosphere. […] This initially appeared to be followed by another endothermic region and the analysis was stopped near 225° C. […] Another sample of material was examined by TGA and found to have mass loss (−8%) from room temperature to approximately 200° C., confirming the broad endotherm observed with the first sample.
A strip of SELP47K was examined by using a dynamic mechanical analyzer (DMA) over the range of −150 to 200° C. […] Another DSC sample was run, pre-heating at 100° C. for 1 hour initially to remove volatiles. The mass loss endotherm was mostly removed, and a transition at 188° C. (half-height) remained. This run was stopped and the sample cooled and examined.

[3] = Water solubility of SELP47K films; type: physicochemical
Source text: The coating appeared to be comprised of densely packed intertwining strands. […] Short, single/double strands of material were found in areas where the coating appeared to be less concentrated. Individual strands of material could be seen in the less concentrated, gray areas on the wafer. SEM analysis of the films provide the basis of water-solubility of SELP47K films.

[4] = system: facial skin; assay: Skin efficacy study: superficial facial line score (Packman and Gans); type: in vivo, human
Source text: (§1) Eleven impaneled subjects (age 35-70 years) showing clear signs of facial skin aging were provided with a non-moisturizing soap, (AVEENO®), one week prior to the study and were instructed to use the provided soap to wash the face and were required to refrain from excessive UV exposure. After a seven-day conditioning phase, subjects were acclimated to the ambient temperature and humidity for thirty minutes. One side of the face of each subject was designated as the measurement side by random selection by computer. After 30-minute acclimation period, baseline digital photographs were taken, and instrumental measurements, skin replica samples and visual evaluations were made. Photographs were taken, with a Canfield Scientific Camera, of the full face, the periorbital area, and the temporal side of eye. Chromameter (Model CR300, Minolta) measurements were taken from the periorbital area directly under the eye (Chardon et al., Int. J. Cosmet. Sci., 13:191-208 [1991]). […]
Evaluation of superficial facial lines was performed by an expert evaluator using the scoring method described by Packman and Gans (supra). A 7% decrease in the superficial facial line score was assessed at the 30-minute post-treatment interval compared to baseline, which was statistically significant at the 91% confidence level (p=0.09).

[5] = system: facial skin; assay: Skin efficacy study: Cutometer Uv (viscoelasticity); type: in vivo, human; conditions: 5% aqueous solution applied once to face; 30 Minutes Post; baseline mean 0.09
Source text: as §1, with “[1991]). Silflo replicas (CuDerm Corporation, Dallas, Tx) were made from the periorbital area adjacent to the temporal side of the eye (Grove et al., J. Am. Acad. Dermatol., 21:631-637 [1998]; and Sun et al 1997 IFSCC Conference, Mexico). Cutometer (SEM575, Courage and Khazaka, Germany) measurements were taken at the periorbital area at the upper portion of cheekbone. All measurements were performed in triplicate.” for “[1991]).”

[6] = Cloud point determination (turbidity at 300 nm, 20-80° C.); type: physicochemical; conditions: 0.05% solution in water

Q: Which cloud point ([1]; 0.1% solution, 0.5 M NaCl, irrespective of pH) does the source give for “SELP47K: silk-elastin repeat sequence protein copolymer, head-[(GAGAGS)2(GVGVP)3GKGVP(GVGP)4(GAGAGS)2]13-tail (SEQ ID NO:19), 886 amino acids” here?
A: The cloud point was 50 °C.

Q: What about the cloud point ([1]; 0.1% solution, pH 5) of the same substance?
A: Its cloud point is “remained soluble even at 80 °C”.

Q: What about the cloud point ([1]; 0.1% solution, pH 9) of the same substance?
A: Its cloud point is 60 °C.

Q: And the cloud point ([1]; 1% solution in water)?
A: The cloud point was 70 °C.

Q: What about the cloud point ([1]; 1% solution, 0.5 M salt, irrespective of pH) of the same substance?
A: The cloud point was 55 °C.

Q: What about the cloud point ([1]; 1% solution, 5-9 pH range) of the same substance?
A: Its cloud point is ~65 °C.

Q: And the cloud point ([1]; 1% solution, pH 5 buffer, 0.2 M salt)?
A: The cloud point was 65 °C.

Q: And the cloud point ([1]; 1% solution, pH 5 buffer, 0.5 M salt)?
A: The cloud point was “below 60 °C”.

Q: What about the cloud point ([1]; 1% solution, pH 5 buffer, no salt) of the same substance?
A: The cloud point was 75 °C.

Q: And the decomposition temperature [2]?
A: The decomposition temperature was 332 °C.

Q: And the glass transition ([2]; film material, DMA/DSC)?
A: Its glass transition is “approximately 189 °C”.

Q: And the “water solubility of film” value ([3]; film made out of 10% SELP47K solution)?
A: Its value is “water-soluble”.

Q: And the “water solubility of film” value ([3]; film made out of 20% SELP47K solution)?
A: Its value is “water insoluble”.

Q: What about the “Superficial Facial Line Score, Mean” value ([4]; 5% aqueous solution applied once to face, 30 Minutes Post, baseline mean 40) of the same substance?
A: The value was 37.

Q: What about the “decrease in the superficial facial line score” value ([4]; 5% aqueous solution, 30-minute post-treatment vs baseline, p=0.09) of the same substance?
A: Its value is 7%.

Q: What about the “Cutometer Uv Score, Mean” value [5] of the same substance?
A: Its value is 0.106.

Q: And the cloud point [6]?
A: Its cloud point is “remains soluble in water even at 80 °C”.
